From publication PMC12014896 (2025)
Changes are numbered by the printed parent chain.

B1: COVIC-321 (antibody)
chain 1: not shown
chain 2: EVQLLESGGGLVQPGGSLRLSCAASGRTFSEYAMGWFRQAPGKGLEFVSTISWSGGSTYYADSVKGRFTISRDNSKNTLYLQMNSLRAEDTAVYYCAAAGLGTVVSEWDYDYDYWGQGTLVTVSSGGGGSGGGGSKRTVAAPSVFIFPPSDEQLKSGTASVVCLLNNFYPREAKVQWKVDNALQSGNSQESVTEQDSKDSTYSLSSTLTLSKADYEKHKVYACEVTHQGLSSPVTKSFNRGEC
B2: COVIC-66 (antibody)
chain: QVQLQESGGGLVQAGGSLRLSCAASGRTFSEYAMGWFRQAPGKEREFVATISWSGGSTYYTDSVKGRFTISRDNAKNTVYLQMNSLKPDDTAVYYCAAAGLGTVVSEWDYDYDYWGQGTQVTVSSGGSGGSQVQLQESGGGLVQAGGSLRLSCVASGSIFSINAMDWYRQAPGKQRELVAGITSGGSTNYGDFVKGRFTISRDNAKNTVYLQMDSLKPEDTAVYYCAAEVGGWGPPRPDYWGHGTQVTVSSGGGGSGGGGSEPKSCDKTHTCPPCPAPELLGGKKKPLDGEYFTLQIRGRERFEMFRELNEALELKDAQAGKEPG
B3: COVIC-307 (antibody, V domains shown)
VH: QVQLVQSGAEVKKPGSSVKVSCKASGGTFGISWVRQAPGQGLEWMGRIIPILGTANHAQKFQGRVTITADKSTGTVYMELSSLRSEDTAVYYCARDGDSGSYYETLGFDYWGQGTLVTVSS
VL: QSALTQPPSASGSPGQSVTISCTGTSSDVGGYNYVSWYQQHPGKAPKLMIYEVNKRPSGVPDRFSGSKSGNTASLTVSGLQAEDEADYYCSSYAGSNNLVFGGGTKLTVL
B4: COVIC-54 (antibody, V domains shown)
VH: QVQLQESGGGLVQAGGSLRLSCAASGRTFSEYAMGWFRQAPGKEREFVATISWSGGSTYYTDSVKGRFTISRDNAKNTVYLQMNSLKPDDTAVYYCAAAGLGTVVSEWDYDYDYWGQGTQVTVSS
B5: COVIC-57 (antibody)
chain 1: QVQLQESGGGLVQAGGSLRLSCAASGRTFSEYAMGWFRQAPGKEREFVATISWSGGSTYYTDSVKGRFTISRDNAKNTVYLQMNSLKPDDTAVYYCAAAGLGTVVSEWDYDYDYWGQGTQVTVSSGGGGSGGGGSASTKGPSVFPLAPSSKSTSGGTAALGCLVKDYFPEPVTVSWNSGALTSGVHTFPAVLQSSGLYSLSSVVTVPSSSLGTQTYICNVNHKPSNTKVDKKVEPKSCDKTHTKKKPLDGEYFTLQIRGRERFEMFRELNEALELKDAQAGKEPG
chain 2: QVQLQESGGGLVQAGGSLRLSCAASGRTFSEYAMGWFRQAPGKEREFVATISWSGGSTYYTDSVKGRFTISRDNAKNTVYLQMNSLKPDDTAVYYCAAAGLGTVVSEWDYDYDYWGQGTQVTVSSGGGGSGGGGSKRTVAAPSVFIFPPSDEQLKSGTASVVCLLNNFYPREAKVQWKVDNALQSGNSQESVTEQDSKDSTYSLSSTLTLSKADYEKHKVYACEVTHQGLSSPVTKSFNRGEC
B6: COVIC-58 (antibody)
chain 1: QVQLQESGGGLVQAGGSLRLSCAASGRTFSEYAMGWFRQAPGKEREFVATISWSGGSTYYTDSVKGRFTISRDNAKNTVYLQMNSLKPDDTAVYYCAAAGLGTVVSEWDYDYDYWGQGTQVTVSSGGGGSGGGGSASTKGPSVFPLAPSSKSTSGGTAALGCLVKDYFPEPVTVSWNSGALTSGVHTFPAVLQSSGLYSLSSVVTVPSSSLGTQTYICNVNHKPSNTKVDKKVEPKSCDKTHTAPELLGGPSVFLFPPKPKDTLMISRTPEVTCVVVDVSHEDPEVKFNWYVDGVEVHNAKTKPREEQYNSTYRVVSVLTVLHQDWLNGKEYKCKVSNKALPAPIEKTISKAKGQPREPQVYTLPPSRDELTKNQVSLTCLVKGFYPSDIAVEWESNGQPENNYKTTPPVLDSDGSFFLYSKLTVDKSRWQQGNVFSCSVMHEALHNHYTQKSLSLSPGKKKKPLDGEYFTLQIRGRERFEMFRELNEALELKDAQAGKEPG
chain 2: B5 chain 2
B7: COVIC-125 (antibody)
chain 1: QVQLQESGGGLVQAGGSLRLSCAASGRTFSEYAMGWFRQAPGKEREFVATISWSGGSTYYTDSVKGRFTISRDNAKNTVYLQMNSLKPDDTAVYYCAAAGLGTVVSEWDYDYDYWGQGTQVTVSSGGSGGSQVQLQESGGGLVQAGGSLRLSCAASGRTFSEYAMGWFRQAPGKEREFVATISWSGGSTYYTDSVKGRFTISRDNAKNTVYLQMNSLKPDDTAVYYCAAAGLGTVVSEWDYDYDYWGQGTQVTVSSGGGGSGGGGSASTKGPSVFPLAPSSKSTSGGTAALGCLVKDYFPEPVTVSWNSGALTSGVHTFPAVLQSSGLYSLSSVVTVPSSSLGTQTYICNVNHKPSNTKVDKKVEPKSCDKTHTKKKPLDGEYFTLQIRGRERFEMFRELNEALELKDAQAGKEPGGGGGSGGGGSQVQLQESGGGLVQAGGSLRLSCAASGRTFSEYAMGWFRQAPGKEREFVATISWSGGSTYYTDSVKGRFTISRDNAKNTVYLQMNSLKPDDTAVYYCAAAGLGTVVSEWDYDYDYWGQGTQVTVSSGGSGGSQVQLQESGGGLVQAGGSLRLSCAASGRTFSEYAMGWFRQAPGKEREFVATISWSGGSTYYTDSVKGRFTISRDNAKNTVYLQMNSLKPDDTAVYYCAAAGLGTVVSEWDYDYDYWGQGTQVTVSS
chain 2: B5 chain 2
B8: COVIC-368 (antibody, V domains shown)
VH: QVQLVQSGAEVKKPGASVKVSCKAYGYTFTSHYMHWVRQAPGQGLEWMGIIDSSGGGASYPQKFQGRVTLTRDTSSSTVYMELSSLRSEDTAVYYCAKAHSTNWYGWFDPWGQGTLVTVSS
VL: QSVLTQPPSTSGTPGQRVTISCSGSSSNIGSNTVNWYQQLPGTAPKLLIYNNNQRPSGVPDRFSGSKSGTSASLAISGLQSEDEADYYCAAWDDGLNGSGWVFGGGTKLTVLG
B9: COVIC-30 (antibody, V domains shown)
VH: EVQLVESGGGLVQPGGSLRLSCAASGFTVSSNYMSWVRQAPGKGLEWVSVIYSGGSTYYADSVKGRFTISRDNSKNTLYLQMNSLRAEDTAVYYCARVEWAAAGTFYWGQGTLVTVSS
VL: QSALTQEPSLTVSPGGTVTLTCGSSTGAVTSGHYPYWFQQKPGQAPRTLIYDTSNKRSWTPARFSGSLLGGKAALTLSGAQPEDEAEYYCLLSYSGVWVFGGGTKLTVL
B10: COVIC-291 (antibody, V domains shown)
VH: EVQLVESGGGLVQPGRSLRLSCAASGFTFDDYAMHWVRQAPGKGLEWVSGISWNSDSIDYADSVKGRFTISRDNAKNSLYLQMNSLRAEDTALYYCAKDRGYEILTPASFDYWGQGTLVTVSS
VL: DIQMTQSPSSLSASVGDRVTITCRASQSISSYLNWFQHKPGKAPKLLIYGASSLQSGVPSRFSGSGSGTDFTLTISSLQPEDFATYYCQQSYSTPPYTFGQGTKLEIK
B11: COVIC-95 (antibody, V domains shown)
VH: EVQLVESGGGLVQPGGSLRLSCAASGQTFNMGWFRQAPGKEREFVAAIGSGGSTSYADSVKGRFTISADNSKNTAYLQMNSLKPEDTAVYYCWRLGNDYFDYWGQGTLVTVSS
B12: COVIC-127 (antibody)
chain 1: not shown
chain 2: QVQLQESGGGLVQAGGSLRLSCAASGRTFSEYAMGWFRQAPGKEREFVATISWSGGSTYYTDSVKGRFTISRDNAKNTVYLQMNSLKPDDTAVYYCAAAGLGTVVSEWDYDYDYWGQGTQVTVSSGGSGGSQVQLQESGGGLVQAGGSLRLSCAASGRTFSEYAMGWFRQAPGKEREFVATISWSGGSTYYTDSVKGRFTISRDNAKNTVYLQMNSLKPDDTAVYYCAAAGLGTVVSEWDYDYDYWGQGTQVTVSSGGGGSGGGGSKRTVAAPSVFIFPPSDEQLKSGTASVVCLLNNFYPREAKVQWKVDNALQSGNSQESVTEQDSKDSTYSLSSTLTLSKADYEKHKVYACEVTHQGLSSPVTKSFNRGEC
B13: COVIC-126 (antibody)
chain 1: B7 chain 1
chain 2: B12 chain 2
B14: COVIC-266 (antibody, V domains shown)
VH: EVQLVESGGGLVQPGGSLRLSCKASGISVAPHAVTWVRQAPGKGLEWIGVIASNADTYYASWAKGRFTISRDNSKNTLYLQMNSLRAEDTAVYYCARHPGSAGYGYTYYYAMDPWGQGTLVTVSS
VL: DIQMTQSPSSLSASVGDRVTITCKASEDIRYGLNWYQQKPGKAPKLLIYGANTLEAGVPSRFSGSGSGTDFTLTISSLQPEDFATYYCQQGYSTPLTFGGGTKVEIK
B15: COVIC-386 (antibody, V domains shown)
VH: B14 VH with I27Y, V29F, A30R, P31H, H32Q, V34M
VL: DIQMTQSPSSLSASVGDRVTITCQASERVFYGIDWYQQKPGKAPKLLIYGASALWHGVPSRFSGSGSGTDYTLTISSLQPEDFATYYCQQGYMVPIGFGGGTKVEIK
B16: COVIC-21 (antibody, V domains shown)
VH: EVQLLESGGGLVQPGGSLRLSCAASGFTFSDFAMAWVRQAPGKGLEWVSAISGSGDITYYADSVKGRFTISRDNSKNTLYLQMNSLRAEDTAVYYCAREADGLHSPWHFDLWGQGTLVTVSS

What follows are binders tested against SARS-CoV-2 spike RBD (Wuhan-Hu-1) (Severe acute respiratory syndrome …, UniProt P0DTC2) (assay: SPR).

Binder	Kd [nM]
B1	30
B2	140
B3	2.36
B4	244
B5	204
B6	139
B7	184
B8	0.436
B9	4.1
B10	6.83
B11	27.5
B12	106
B13	139
B14	2.41
B15	0.177
B16	0.208
